# According to the supplement of paper PMC9112550, “Optimization of the antimicrobial peptide Bac7 by deep mutational scanning” (BMC Biology, 2022):
# Test system: Escherichia coli TOP10
# Experiment: shrunken log2 fold change of peptide-encoding DNA abundance (4.5 h post-induction vs induction); higher = less antimicrobial activity (less host growth inhibition)
# Settings: time post-induction: 4.5 h; library: site-saturation at positions 5, 18, 19, 20
# 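Note: peptides expressed intracellularly from a pBAD plasmid library in pooled LB shake-flask culture, induced with 0.3% L-arabinose, DNA abundance read by NGS, three biological replicates, DESeq2 with apeglm shrinkage.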
row,Sequence,shrunken log2 fold change
1,RRIRHRPPRLPRPRPRPEADPRP,-0.00192
2,RRIRDRPPRLPRPRPRPKYVPRP,0.13
3,RRIRIRPPRLPRPRPRPMMDPRP,-0.132
4,RRIRLRPPRLPRPRPRPMTTPRP,0.0748
5,RRIRTRPPRLPRPRPRPCSMPRP,-0.179
6,RRIRNRPPRLPRPRPRPRVSPRP,0.0988
7,RRIRARPPRLPRPRPRPYAVPRP,-0.0829
8,RRIRHRPPRLPRPRPRPVNHPRP,-0.361
9,RRIRDRPPRLPRPRPRPCMFPRP,-0.00227
10,RRIRKRPPRLPRPRPRPNRLPRP,0.497
11,RRIRSRPPRLPRPRPRPDVDPRP,0.0112
12,RRIRCRPPRLPRPRPRPFFDPRP,-0.199
13,RRIRYRPPRLPRPRPRPHNKPRP,-0.718
14,RRIRRRPPRLPRPRPRPYAQPRP,-0.252
15,RRIRHRPPRLPRPRPRPCCWPRP,0.015
16,RRIRPRPPRLPRPRPRPLQTPRP,0.0208
17,RRIRARPPRLPRPRPRPTFAPRP,0.347
18,RRIRYRPPRLPRPRPRPLPQPRP,-0.0827
19,RRIRGRPPRLPRPRPRPGYIPRP,-0.0887
20,RRIRFRPPRLPRPRPRPTIKPRP,-0.223
21,RRIRYRPPRLPRPRPRPQEAPRP,-0.029
22,RRIRFRPPRLPRPRPRPLVPPRP,0.338
23,RRIRDRPPRLPRPRPRPSYWPRP,-0.0689
24,RRIRVRPPRLPRPRPRPTFDPRP,-0.0428
25,RRIRRRPPRLPRPRPRPSKHPRP,-0.196

row,Sequence,shrunken log2 fold change
1,RRIRGRPPRLPRPRPRPHLCPRP,0.58
2,RRIRNRPPRLPRPRPRPISYPRP,-0.029
3,RRIRARPPRLPRPRPRPSHGPRP,0.115
4,RRIRGRPPRLPRPRPRPATSPRP,0.914
5,RRIRNRPPRLPRPRPRPPTHPRP,0.0725
6,RRIRQRPPRLPRPRPRPLQVPRP,-0.0738
7,RRIRCRPPRLPRPRPRPEAWPRP,0.976
8,RRIRPRPPRLPRPRPRPVGGPRP,0.408
9,RRIRDRPPRLPRPRPRPICSPRP,0.0206
10,RRIRGRPPRLPRPRPRPTQYPRP,0.337
11,RRIRQRPPRLPRPRPRPKKSPRP,-0.197
12,RRIRKRPPRLPRPRPRPRYTPRP,-0.113
13,RRIRYRPPRLPRPRPRPHNNPRP,-1.16
14,RRIRMRPPRLPRPRPRPIIYPRP,-0.732
15,RRIRFRPPRLPRPRPRPSYPPRP,-0.161
16,RRIRDRPPRLPRPRPRPQENPRP,0.0153
17,RRIRCRPPRLPRPRPRPFKLPRP,-0.62
18,RRIRQRPPRLPRPRPRPQYSPRP,0.124
19,RRIRCRPPRLPRPRPRPTLGPRP,0.168
20,RRIRDRPPRLPRPRPRPQVIPRP,-0.0205
21,RRIRKRPPRLPRPRPRPLWNPRP,0.109
22,RRIRTRPPRLPRPRPRPNPEPRP,-0.101
23,RRIRGRPPRLPRPRPRPGIIPRP,0.0469
24,RRIRARPPRLPRPRPRPMVIPRP,0.0235
25,RRIRKRPPRLPRPRPRPQTHPRP,0.372

row,Sequence,shrunken log2 fold change
1,RRIRQRPPRLPRPRPRPWFYPRP,-0.373
2,RRIRQRPPRLPRPRPRPVCGPRP,0.205
3,RRIRMRPPRLPRPRPRPTIVPRP,-0.0671
4,RRIRMRPPRLPRPRPRPFALPRP,0.0192
5,RRIRKRPPRLPRPRPRPKGYPRP,-0.00627
6,RRIRVRPPRLPRPRPRPLIGPRP,0.0681
7,RRIRKRPPRLPRPRPRPSKQPRP,0.292
8,RRIRSRPPRLPRPRPRPIICPRP,-0.258
9,RRIRGRPPRLPRPRPRPKKCPRP,0.544
10,RRIRCRPPRLPRPRPRPRHIPRP,-0.28
11,RRIRNRPPRLPRPRPRPCGRPRP,-0.0266
12,RRIRERPPRLPRPRPRPFNLPRP,-0.233
13,RRIRKRPPRLPRPRPRPYIDPRP,-0.194
14,RRIRSRPPRLPRPRPRPSEMPRP,-0.114
15,RRIRSRPPRLPRPRPRPIDPPRP,0.017
16,RRIRKRPPRLPRPRPRPFRLPRP,0.0113
17,RRIRNRPPRLPRPRPRPRHVPRP,-0.119
18,RRIRCRPPRLPRPRPRPLCEPRP,-0.0345
19,RRIRWRPPRLPRPRPRPSGIPRP,0.146
20,RRIRKRPPRLPRPRPRPSHVPRP,0.164
21,RRIRDRPPRLPRPRPRPSKHPRP,-0.263
22,RRIRFRPPRLPRPRPRPNFKPRP,-0.222
23,RRIRLRPPRLPRPRPRPLHLPRP,-0.21
24,RRIRSRPPRLPRPRPRPMYRPRP,-0.172
25,RRIRHRPPRLPRPRPRPEFTPRP,-0.0939

row,Sequence,shrunken log2 fold change
1,RRIRKRPPRLPRPRPRPGWWPRP,0.0245
2,RRIRERPPRLPRPRPRPSAAPRP,0.133
3,RRIRIRPPRLPRPRPRPAFSPRP,-0.155
4,RRIRHRPPRLPRPRPRPRPYPRP,0.0624
5,RRIRQRPPRLPRPRPRPDGWPRP,0.228
6,RRIRKRPPRLPRPRPRPFYAPRP,-0.0279
7,RRIRFRPPRLPRPRPRPDYAPRP,-1.13
8,RRIRMRPPRLPRPRPRPTTWPRP,0.745
9,RRIRCRPPRLPRPRPRPIWIPRP,-0.291
10,RRIRARPPRLPRPRPRPTGDPRP,0.604
11,RRIRARPPRLPRPRPRPMMDPRP,-0.203
12,RRIRLRPPRLPRPRPRPSSGPRP,0.131
13,RRIRIRPPRLPRPRPRPFRDPRP,-0.111
14,RRIRCRPPRLPRPRPRPLEDPRP,0.0306
15,RRIRNRPPRLPRPRPRPSWWPRP,0.28
16,RRIRRRPPRLPRPRPRPEYMPRP,0.0765
17,RRIRERPPRLPRPRPRPITTPRP,-0.03
18,RRIRFRPPRLPRPRPRPFYIPRP,-0.489
19,RRIRERPPRLPRPRPRPTWRPRP,0.268
20,RRIRSRPPRLPRPRPRPMFNPRP,-0.258
21,RRIRTRPPRLPRPRPRPNSEPRP,0.0485
22,RRIRIRPPRLPRPRPRPVYYPRP,-1.62
23,RRIRQRPPRLPRPRPRPIDTPRP,-0.216
24,RRIRERPPRLPRPRPRPLGDPRP,-0.0627
25,RRIRQRPPRLPRPRPRPDWEPRP,0.0238

row,Sequence,shrunken log2 fold change
1,RRIRSRPPRLPRPRPRPGENPRP,0.894
2,RRIRRRPPRLPRPRPRPVEDPRP,0.355
3,RRIRNRPPRLPRPRPRPYFTPRP,-0.47
4,RRIRCRPPRLPRPRPRPICLPRP,-0.127
5,RRIRWRPPRLPRPRPRPGCSPRP,0.551
6,RRIRQRPPRLPRPRPRPYACPRP,0.0958
7,RRIRSRPPRLPRPRPRPTNQPRP,-0.311
8,RRIRGRPPRLPRPRPRPCGCPRP,1.09
9,RRIRDRPPRLPRPRPRPQMHPRP,0.156
10,RRIRLRPPRLPRPRPRPDCIPRP,0.185
11,RRIRFRPPRLPRPRPRPLCHPRP,-0.271
12,RRIRHRPPRLPRPRPRPCDCPRP,-0.138
13,RRIRCRPPRLPRPRPRPQTNPRP,-0.374
14,RRIRERPPRLPRPRPRPLEFPRP,-0.542
15,RRIRSRPPRLPRPRPRPKMNPRP,-0.163
16,RRIRKRPPRLPRPRPRPDKGPRP,-0.022
17,RRIRHRPPRLPRPRPRPENKPRP,-0.639
18,RRIRERPPRLPRPRPRPRPIPRP,0.345
19,RRIRWRPPRLPRPRPRPILDPRP,0.187
20,RRIRQRPPRLPRPRPRPLDPPRP,-0.408
21,RRIRDRPPRLPRPRPRPCEFPRP,0.013
22,RRIRSRPPRLPRPRPRPRCMPRP,-0.0959
23,RRIRGRPPRLPRPRPRPTAPPRP,0.71
24,RRIRKRPPRLPRPRPRPKIEPRP,-0.0694
25,RRIRNRPPRLPRPRPRPRGAPRP,0.601

row,Sequence,shrunken log2 fold change
1,RRIRDRPPRLPRPRPRPNVHPRP,-0.303
2,RRIRQRPPRLPRPRPRPNGAPRP,0.451
3,RRIRRRPPRLPRPRPRPLIPPRP,-0.0124
4,RRIRDRPPRLPRPRPRPADTPRP,-0.379
5,RRIRHRPPRLPRPRPRPRVVPRP,0.072
6,RRIRNRPPRLPRPRPRPVGAPRP,0.0749
7,RRIRRRPPRLPRPRPRPTSKPRP,0.162
8,RRIRLRPPRLPRPRPRPQLKPRP,-0.0336
9,RRIRDRPPRLPRPRPRPGKWPRP,-0.00965
10,RRIRGRPPRLPRPRPRPERWPRP,1.19
11,RRIRPRPPRLPRPRPRPITWPRP,-0.0578
12,RRIRTRPPRLPRPRPRPGIDPRP,-0.0352
13,RRIRFRPPRLPRPRPRPRWHPRP,0.059
14,RRIRWRPPRLPRPRPRPLYLPRP,-0.5
15,RRIRFRPPRLPRPRPRPSTPPRP,-0.463
16,RRIRSRPPRLPRPRPRPQQTPRP,0.0905
17,RRIRIRPPRLPRPRPRPERTPRP,0.0643
18,RRIRQRPPRLPRPRPRPVWGPRP,0.225
19,RRIRTRPPRLPRPRPRPHPNPRP,0.0697
20,RRIRIRPPRLPRPRPRPHAVPRP,-0.12
21,RRIRPRPPRLPRPRPRPQKSPRP,0.0462
22,RRIRSRPPRLPRPRPRPMMEPRP,0.0765
23,RRIRGRPPRLPRPRPRPIVHPRP,0.342
24,RRIRKRPPRLPRPRPRPWTDPRP,-0.00992
25,RRIRMRPPRLPRPRPRPSDRPRP,0.0714
